Data: paper PMC2186201

Target: human C3bi, bound to erythrocytes (EC3bi) (human) (UniProt P01024)
Assay: conglutinin-dependent hemagglutination

conglutination (percent of activity): 100%
B1: bovine conglutinin (natural protein)
chain: AEMTTFSQKILANACTLVMCSPLESGLPGHDGQDGRECPHGEKGDPGSPGPAGRAGRPGWVGPIGPKGDNGFVGEPGPKGDTGPRGPPGMPGPAGREGPSGKQGSMGPPGTPGPKGETGPKGGVGAPGIQGFPGPSGLKGEKGAPGETGAPGRAGVTGPSGAIGPQGPSGARGPPGLKGDRGDPGETGAKGESGLAEVNALKQRVTILDGHLRRFQNAFSQYKKAVLFPDGQAVGEKIFKTAGAVKSYSDAEQLCREAKGQLASPRSSAENEAVTQMVRAQEKNAYLSMNDISTEGRFTYPTGEILVYSNWADGEPNNSDEGQPENCVEIFPDGKWNDVPCSKQLLVICEF
